Reference: US9155795B2, “CXCR4 receptor compounds” (Anchor Therapeutics, Inc., priority 2010, dated 2015)
Where a SMILES comes first, the peptide text is derived from it. Where no end group is shown, it is not given here. [ ]: non-standard residue; d: D form. The star is where a group is joined. Hexadecanesulfonyl = CCCCCCCCCCCCCCCCS(=O)(=O)*

Assays:
[1] = target: T1, CXCR4 (Homo sapiens, UniProt P61073); test: CXCR4 chemotaxis assay (Transwell, CCRF-CEM cells); format: cell-based; conditions: DMSO vehicle
T1 construct: CCRF-CEM cells, a human T-cell ALL line that endogenously expresses CXCR4; endogenous in cells; host or cells: CCRF-CEM (human T-cell acute lymphoblastic leukemia line)
T1 sequence (P61073 whole entry): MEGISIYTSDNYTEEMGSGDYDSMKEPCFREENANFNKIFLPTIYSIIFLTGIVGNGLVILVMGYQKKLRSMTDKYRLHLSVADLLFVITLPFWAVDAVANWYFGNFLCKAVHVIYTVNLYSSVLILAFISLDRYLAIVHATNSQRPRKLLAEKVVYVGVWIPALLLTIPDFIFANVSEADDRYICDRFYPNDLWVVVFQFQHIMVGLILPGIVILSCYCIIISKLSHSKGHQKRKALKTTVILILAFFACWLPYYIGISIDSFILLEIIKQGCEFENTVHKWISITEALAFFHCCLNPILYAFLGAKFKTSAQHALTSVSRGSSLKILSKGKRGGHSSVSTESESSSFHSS
Text: Chemotaxis assays are utilized to determine the effect of compound on the directed migration of cells in response to chemokine. In general, cells that express a receptor of interest are placed in the upper chamber of a Transwell chemotaxis plate (Corning) and allowed to migrate through a polycarbonate membrane to a lower chamber containing the appropriate receptor-specific ligand. To test for antagonist or potentiating activity, cells are mixed with the desired concentration of compound prior to addition to the upper chamber. Conversely, agonist activity is determined by adding compound in the bottom chamber only without endogenous chemokine. The effect of compound is quantified by several parameters, including the extent of maximum response, the shift of agonist dose-response curves, and the area under the curve.
To measure the CXCR4 test compound elicited CXCR4-dependent migration of cells, the appropriate concentration of control agonist CXCL12 or test compound is diluted in phenol red-free RMPI-1640/20 mM HEPES/0.5% BSA buffer and placed in the bottom chamber of a transwell apparatus. CCRF-CEM cells, a human T-cell ALL line that endogenously expresses CXCR4, are washed twice in buffer and resuspended at 133,000 cells/ml. A 75 μl sample of the cell suspension is mixed with the test compound of interest and placed in the upper chamber of a 5-micron transwell apparatus.
To measure the effect of test compound on CXCL12 elicited CXCR4-dependent migration of cells, the appropriate concentration of CXCL12 is diluted in phenol red-free RMPI-1640/20 mM HEPES/0.5% BSA buffer and placed in the bottom chamber of a transwell apparatus. CCRF-CEM cells, a human T-cell ALL line that endogenously expresses CXCR4, are washed twice in buffer and resuspended at 133,000 cells/ml. A 75 μl sample of this suspension is mixed with the test compound of interest and placed in the upper chamber of a 5-micron transwell apparatus.
To initiate cell migration, the assembled transwell plate is placed in a 37° C., […] incubator for a specified time interval, typically between 30 and 120 minutes. After incubation, the unit is disassembled and the lower chamber placed at −80° C. overnight to facilitate lysis of cells. To quantify migrated cells, plates are thawed at 37° C. in a humidified chamber, and then a sample volume is removed from each well and mixed with an equal volume of CyQuant (Invitrogen) working solution in opaque plates. The fluorescence intensity of each well represents the DNA content and is directly proportional to cell number. Each sample is typically run in duplicate or triplicate and each plate include two separate negative controls. The plate background control, which includes no cells in the upper chamber, is subtracted from all values. […]

[2] = target: T1, CXCR4; test: Calcium flux assay, agonist mode, FLIPR (CCRF-CEM cells); format: cell-based; conditions: percent of maximum response compared with SDF-1α, read-out: % Intrinsic Activity
Experimental: The calcium flux assay was used to assess the test compounds' ability to activate the CXCR4 receptor in CCRF-CEM cells (human T lymphoblasts from acute lymphoblastic leukemia). […] After dye loading by incubating with Calcium-4 dye at 37° C. for 1 hour, cell plates were read at 37° C. using the Fluorescent Imaging Plate Reader (FLIPR). Receptor activation was assessed by measuring changes in fluorescent intensity after the addition of the test compounds or the reference agonist SDF-1α on the FLIPR.

Row | Compound | AUC (% of Vehicle) [1] | Max (% of Vehicle) [1] | Emax [2] [%]
1 | 43: i3 loop peptide SKLSHSKGHQKRKALKTTVIL (SEQ ID NO: 39), lipid Pal (also: lipid Pal attached, position not given here) [Compound 43] | 226.59 % of Vehicle | 202.16 % of Vehicle | 
2 | 44: i4 loop peptide GAKFKTSAQHALTSVR (SEQ ID NO: 40), lipid Pal (also: lipid Pal attached, position not given here) [Compound 44] | 56.75 % of Vehicle | 56.7 % of Vehicle | 
3 | CCCCCCCCCCCCCCCCS(=O)(=O)NCC(=O)NCC(=O)N[C@@H](Cc1ccc(O)cc1)C(=O)N[C@@H](CCC(N)=O)C(=O)N[C@@H](CCCCN)C(=O)N[C@@H](CCCCN)C(=O)N[C@@H](CC(C)C)C(=O)N[C@@H](CCCNC(=N)N)C(=O)N1CCC[C@@H]1C(=O)N[C@@H](Cc1c[nH]cn1)C(=O)N[C@H](C(=O)N[C@@H](CC(=O)O)C(=O)N[C@@H](CCCCN)C(=O)N[C@@H](Cc1ccc(O)cc1)C(=O)N[C@@H](CCCNC(=N)N)C(=O)N[C@@H](CC(C)C)C(N)=O)[C@@H](C)O [Compound 46, CH3(CH2)15SO2— GGYQKKLRpHTDKYRL-amide] (Hexadecanesulfonyl-GGYQKKLR[dP]HTDKYRL-NH2) |  |  | 107
